B4: WT-HSPB5 (full-length HSPB5, alphaB-crystallin) (natural protein, human, UniProt P02511 1-175, looked up)
chain: MDIAIHHPWIRRPFFPFHSPSRLFDQFFGEHLLESDLFPTSTSLSPFYLRPPSFLRAPSWFDTGLSEMRLEKDRFSVNLDVKHFSPEELKVKVLGDVIEVHGKHEERQDEHGFISREFHRKYRIPADVDPLTITSSLSSDGVLTVNGPRKQVSGPERTIPITREEKPAVTAAPKK
notes: HSPB5 (alphaB-crystallin), human, full length; Forms polydisperse oligomers; also called αB-crystallin; source: expressed and purified as described previously (Jehle et al., 2009)
B5: H104K-HSPB5 (full-length HSPB5 with His-104 replaced by Lys) (natural protein, human, UniProt P02511 1-175, looked up)
chain: MDIAIHHPWIRRPFFPFHSPSRLFDQFFGEHLLESDLFPTSTSLSPFYLRPPSFLRAPSWFDTGLSEMRLEKDRFSVNLDVKHFSPEELKVKVLGDVIEVHGKKEERQDEHGFISREFHRKYRIPADVDPLTITSSLSSDGVLTVNGPRKQVSGPERTIPITREEKPAVTAAPKK
notes: HSPB5 (alphaB-crystallin), human, full length, with H104K; source: growth and purification similar to that of wild-type proteins (Jehle et al., 2009)
B6: H104Q-HSPB5 (full-length HSPB5 with His-104 replaced by Gln) (natural protein, human, UniProt P02511 1-175, looked up)
chain: MDIAIHHPWIRRPFFPFHSPSRLFDQFFGEHLLESDLFPTSTSLSPFYLRPPSFLRAPSWFDTGLSEMRLEKDRFSVNLDVKHFSPEELKVKVLGDVIEVHGKQEERQDEHGFISREFHRKYRIPADVDPLTITSSLSSDGVLTVNGPRKQVSGPERTIPITREEKPAVTAAPKK
notes: HSPB5 (alphaB-crystallin), human, full length, with H104Q; source: growth and purification similar to that of wild-type proteins (Jehle et al., 2009)

Legend:
[1] = target: the molecule itself; test: ITC; dilution ITC, 1 mM WT-ACD, dimer to monomers; 25°C, pH 6.5, 50 mM sodium phosphate, 100 mM NaCl
[2] = target: the molecule itself; test: ITC; dilution ITC, 1 mM WT-ACD, dimer to monomers; 25°C, pH 7.5, 50 mM sodium phosphate, 100 mM NaCl
[3] = target: the molecule itself; test: ITC; dilution ITC, 1 mM WT-ACD, dimer to monomers; 37°C, pH 7.5, 50 mM sodium phosphate, 100 mM NaCl
[4] = target: the molecule itself; test: 15N-CPMG relaxation dispersion NMR; 700 and 200 μM ACD, pH 7.5, 37°C; global fit of dimer interface residues; rate constants worked out with the KD of 36 μM from ITC; dimer to monomers
[5] = target: the molecule itself; test: 1H-15N HSQC NMR; 200 μM ACD, pH 7.5, 22°C, NMR buffer; populations of dimer and monomer peaks; dimer to monomers
[6] = target: the molecule itself; test: SEC-MALS; 40 μM subunits, pre-incubated at 37°C for 30 min; 50 mM sodium phosphate pH 7.5, 100 mM NaCl, 1 mM DTT; size of the oligomers
[7] = target: the molecule itself; test: SEC-MALS; 40 μM subunits, equilibrated at 37°C for at least 60 min; 50 mM sodium phosphate pH 6.5, 100 mM NaCl, 1 mM DTT; size of the oligomers
[8] = target: B4; test: SEC-MALS; WT- and H104K-HSPB5 incubated together at ratios 1:0, 2:1, 1:1, 1:2, 0:1; mixed oligomers; details: both partners purified
[9] = target: B6; test: SEC-MALS; HSPB5 (40 μM subunits) pre-incubated with αLac (240 μM in the methods, 120 μM in the legend) at 37°C, pH 7.5, 10 min, then 50 mM DTT for 50 min, filtered and injected; SDS-PAGE of peak fractions; details: both partners purified
[10] = target: B5; test: as above; details: both partners purified

B1: HSPB5-ACD (alpha-crystallin domain of HSPB5, residues 64-152) (domain or fragment, human, UniProt P02511 64-152, looked up)
chain: GLSEMRLEKDRFSVNLDVKHFSPEELKVKVLGDVIEVHGKHEERQDEHGFISREFHRKYRIPADVDPLTITSSLSSDGVLTVNGPRKQV
notes: HSPB5 (alphaB-crystallin), human, alpha-crystallin domain, residues 64-152; 15N- or 13C,15N-labelled for the NMR experiments; also called WT-ACD; WT-HSPB5-ACD; source: expressed and purified as described previously (Jehle et al., 2009)
Q: How did the Kd [1] turn out when B1 was run?
A: Its Kd is 30 ± 16 µM.

Q: What about the dH [1] of the same binder?
A: Its dH is 3.24 ± 0.432 kcal/mol.

Q: And the Kd [2]?
A: Its Kd is 2 ± 2 µM.

Q: And the dH [2]?
A: The dH was 8.77 ± 3.96 kcal/mol.

Q: What about the Kd [3] of the same binder?
A: The Kd was 36 ± 2 µM.

Q: What about the dH [3] of the same binder?
A: Its dH is 9.33 ± 0.527 kcal/mol.

Q: What about the koff [4] of the same binder?
A: Its koff is 400 s⁻¹.

Q: What about the kon [4] of the same binder?
A: Its kon is 1.1e+07 M⁻¹ s⁻¹.

B2: H104Q-ACD (HSPB5-ACD with His-104 replaced by Gln) (domain or fragment, human, UniProt P02511 64-152, looked up)
chain: GLSEMRLEKDRFSVNLDVKHFSPEELKVKVLGDVIEVHGKQEERQDEHGFISREFHRKYRIPADVDPLTITSSLSSDGVLTVNGPRKQV
notes: HSPB5 (alphaB-crystallin), human, alpha-crystallin domain, residues 64-152, with H104Q; source: growth and purification similar to that of wild-type proteins (Jehle et al., 2009)
Q: For B2, which Kd [5] is on record?
A: The Kd was 100 to 500 µM.

B3: H104K-ACD (HSPB5-ACD with His-104 replaced by Lys) (domain or fragment, human, UniProt P02511 64-152, looked up)
chain: GLSEMRLEKDRFSVNLDVKHFSPEELKVKVLGDVIEVHGKKEERQDEHGFISREFHRKYRIPADVDPLTITSSLSSDGVLTVNGPRKQV
notes: HSPB5 (alphaB-crystallin), human, alpha-crystallin domain, residues 64-152, with H104K; source: growth and purification similar to that of wild-type proteins (Jehle et al., 2009)
Q: For B3, which Kd [5] is on record?
A: Its Kd is greater than 1000 µM.

Q: B4 was tested. Which “stoichiometry N” value [6] did it give?
A: The value was roughly 24 subunits.

Q: What about the “stoichiometry N” value [7] of the same binder?
A: Its value is roughly 36 subunits per oligomer.

Q: Does B5 bind [8]?
A: Result: binds

Q: And the “stoichiometry N” value [6]?
A: Its value is roughly 41 subunits.

Q: Does B6 bind [6]?
A: Result: binds

B7: bovine αLactalbumin (natural protein, UniProt P00711 20-142, looked up)
chain: EQLTKCEVFRELKDLKGYGGVSLPEWVCTTFHTSGYDTQAIVQNNDSTEYGLFQINNKIWCKDDQNPHSSNICNISCDKFLDDDLTDDIMCVKKILDKVGINYWLAHKALCSEKLDQWLCEKL
notes: alpha-lactalbumin, bovine, Sigma L6010; Model client protein; source: bought: Sigma (L6010)
Q: Does B7 bind [9]?
A: Result: binds

Q: Does B7 bind [10]?
A: Result: binds
